{"source": "paper PMC6294567", "about": "“The C-terminal D/E-rich domain of MBD3 is a putative Z-DNA mimic that competes for Zα DNA-binding activity” (Nucleic Acids Research, 2018)", "molecules": {"B1": {"name": "MBD domain: MBD domain of MBD3; residues 1–72 (protein)", "chain": "MERKRWECPALPQGWEREEVPRRSGLSAGHRDVFYYSPSGKKFRSKPQLARYLGGSMDLSTFDFRTGKMLMS", "modifications": "left off: His6, N-terminal, cleaved"}, "B2": {"name": "MBD3 (full-length human MBD3; residue 1–291), tag-free, O95983-1 1-291 (natural protein)", "chain": "MERKRWECPALPQGWEREEVPRRSGLSAGHRDVFYYSPSGKKFRSKPQLARYLGGSMDLSTFDFRTGKMLMSKMNKSRQRVRYDSSNQVKGKPDLNTALPVRQTASIFKQPVTKITNHPSNKVKSDPQKAVDQPRQLFWEKKLSGLNAFDIAEELVKTMDLPKGLQGVGPGCTDETLLSAIASALHTSTMPITGQLSAAVEKNPGVWLNTTQPLCKAFMVTDEDIRKQEELVQQVRKRLEEALMADMLAHVEELARDGEAPLDKACAEDDDEEDEEEEEEEPDPDPEMEHV"}, "B3": {"name": "FLAG-MBD3: FLAG-tagged full-length MBD3 transiently expressed in 293F cells (protein)", "chain": "MERKRWECPALPQGWEREEVPRRSGLSAGHRDVFYYSPSGKKFRSKPQLARYLGGSMDLSTFDFRTGKMLMSKMNKSRQRVRYDSSNQVKGKPDLNTALPVRQTASIFKQPVTKITNHPSNKVKSDPQKAVDQPRQLFWEKKLSGLNAFDIAEELVKTMDLPKGLQGVGPGCTDETLLSAIASALHTSTMPITGQLSAAVEKNPGVWLNTTQPLCKAFMVTDEDIRKQEELVQQVRKRLEEALMADMLAHVEELARDGEAPLDKACAEDDDEEDEEEEEEEPDPDPEMEHV", "modifications": "left off: FLAG, end not stated, kept", "notes": "FLAG-tagged full-length MBD3 transiently expressed in 293F cells"}, "B4": {"name": "MBDDE (MBD domain of MBD3 connected to the acidic tail; residues 263–291), tag-free (domain or fragment, human, UniProt O95983-1 1-72, looked up)", "chain": "MERKRWECPALPQGWEREEVPRRSGLSAGHRDVFYYSPSGKKFRSKPQLARYLGGSMDLSTFDFRTGKMLMSDKACAEDDDEEDEEEEEEEPDPDPEMEHV", "notes": "MBD domain of human MBD3; its limits (1-72) are those printed for the MBD3MBD construct; No linker between the two stretches is mentioned; The protein was partly degraded from the C-terminal disordered region by mass spectrometry; source: E. coli BL21(DE3), purified (Ni-NTA, TEV cleavage, reverse Ni-NTA, gel filtration); not shown: His6, N-terminal, cleaved"}, "B5": {"name": "MBDDE: MBD domain of MBD3 connected to the acidic tail; residues 263–291 (protein)", "chain": "MERKRWECPALPQGWEREEVPRRSGLSAGHRDVFYYSPSGKKFRSKPQLARYLGGSMDLSTFDFRTGKMLMSDKACAEDDDEEDEEEEEEEPDPDPEMEHV", "modifications": "left off: His6, N-terminal, cleaved"}}, "key": {"[1]": {"biological_target": "Zα, tag-free (Z-DNA binding domain of human ADAR1, residues 133-209) (human) (UniProt P55265)", "experiment": "fluorescence polarisation; competition: unlabelled peptide added to the pre-incubated mixture of Zα and 6-FAM-d(CG)6 duplex; 20 mM HEPES-NaOH pH 7.5, 50 mM NaCl, 1 mM DTT; dose-response (variable slope) model"}, "[2]": {"biological_target": "MBDDE (MBD domain of MBD3 connected to the acidic tail; residues 263–291), tag-free (human) (UniProt O95983)", "experiment": "SEC; Zα (400 μM) and MBDDE (100 μM), or Zα and MBD under the same conditions, 4:1 molar ratio; 20 mM Tris-HCl pH 7.5, 50 mM NaCl, 1 mM TCEP; Superdex 75 10/300 GL; fractions on SDS-PAGE"}, "[3]": {"biological_target": "T1, Zα and 6-FAM-d(CG)6 duplex (Homo sapiens, UniProt P55265)", "T1 construct": "Zα of human ADAR1; residues 133–209; His6 (pMCSG7, followed by a TEV site) (N, cleaved yes); made in house; host or cells: E. coli BL21(DE3)", "T1 sequence (P55265 133-209)": "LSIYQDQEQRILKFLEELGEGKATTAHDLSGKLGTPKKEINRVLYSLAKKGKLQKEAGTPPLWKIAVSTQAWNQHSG", "experiment": "FP competition: displacement of Zα binding to 6-FAM-d(CG)6"}, "[4]": {"biological_target": "T2, Zα, tag-free (Z-DNA binding domain of human ADAR1, residues 133-209) (human), P55265", "T2 chain": "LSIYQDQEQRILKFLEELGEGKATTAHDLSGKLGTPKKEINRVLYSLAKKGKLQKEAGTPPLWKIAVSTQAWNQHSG", "experiment": "fluorescence polarisation; competition: unlabelled peptide added to the pre-incubated mixture of Zα and 6-FAM-d(CG)6 duplex; 20 mM HEPES-NaOH pH 7.5, 50 mM NaCl, 1 mM DTT; dose-response (variable slope) model"}, "d(CG)6 duplex": {"tested_on": "d(CG)6 duplex", "experiment": "Circular dichroism of d(CG)6 DNA conformation", "description": "CD spectra were measured at 24°C on a J-815 Spectrometer (JASCO) using a 1 mm path length quartz cell. Prepare 7.5 μM DNA duplex in a buffer consisting of 5 mM HEPES–NaOH pH 7.5, 25 mM NaCl and 1 mM DTT, and in the absence or presence of indicated concentration of proteins. Spectra were recorded between 235 and 305 nm wavelength with a data pitch of 1 nm, bandwidth of 1 nm and with two accumulations at a scanning speed of 10 nm/min.\nFigure 6. Zα can compete with the MBD domain for binding to d(CG)6, but not vice versa. (A) CD spectra of the d(CG)6 duplex in the presence of Zα. CD spectra of (B) the d(CG)6 and (C) the d(C^mG)6 duplex, respectively, in the presence of the MBD domain. (D) Monitoring of the change in CD spectra with the addition of increased amounts of Zα to the pre-incubated mixture of the MBD domain and d(CG)6. (E) Monitoring of the change in CD spectra with the addition of increased amount of the MBD domain to the pre-incubated mixture of Zα and d(CG)6. Spectra are expressed in absolute values of ellipticity in millidegrees (mdeg)."}, "Zα": {"biological_target": "T3, Zα (Homo sapiens, UniProt P55265)", "T3 construct": "Zα of human ADAR1; residues 133–209; His6 (pMCSG7, followed by a TEV site) (N, cleaved yes); made in house; host or cells: E. coli BL21(DE3)", "T3 sequence (P55265 133-209)": "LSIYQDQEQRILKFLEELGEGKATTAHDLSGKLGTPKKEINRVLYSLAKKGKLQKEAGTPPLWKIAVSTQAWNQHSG", "experiment": "SEC / SDS-PAGE complex formation with Zα", "type": "binding", "description": "Equimolar amounts (0.1 mM) of Zα and DE-rich peptide were incubated on ice for 1 h in a buffer containing 20 mM HEPES–NaOH pH 7.5, 50 mM NaCl, 1 mM DTT. The mixture was then loaded on a Superdex 30 16/600 column (GE Healthcare) equilibrated in the same buffer. The fractions from the peaks corresponding to Zα alone and the complex of Zα and DE-rich peptide were collected and used for chemical cross-linking.\nTo analyze complex formation of Zα and other proteins (MBD3, MBD or MBDDE), the mixtures were incubated on ice for 1 h in a buffer containing 20 mM Tris–HCl pH 7.5, 50 mM NaCl, 1 mM TCEP. The mixture was then loaded on a Superdex 75 or Superdex 200 increase 10/300 column (GE Healthcare)."}, "[5]": {"biological_target": "T4, MBD3 (full-length human MBD3; residue 1–291), tag-free (human), O95983", "T4 chain": "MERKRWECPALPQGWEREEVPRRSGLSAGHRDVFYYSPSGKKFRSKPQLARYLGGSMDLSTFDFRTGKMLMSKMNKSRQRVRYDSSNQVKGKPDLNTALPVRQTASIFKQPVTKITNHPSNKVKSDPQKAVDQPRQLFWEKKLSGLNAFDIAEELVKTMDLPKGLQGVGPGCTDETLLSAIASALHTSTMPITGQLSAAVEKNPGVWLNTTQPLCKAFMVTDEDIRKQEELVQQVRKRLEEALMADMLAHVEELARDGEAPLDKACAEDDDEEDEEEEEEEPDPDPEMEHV", "experiment": "SEC; purified MBD3 alone on Superdex 200 increase 10/300 GL against protein standards", "details": "remark: other sources report otherwise"}, "endogenous ADAR1": {"tested_on": "endogenous ADAR1", "experiment": "FLAG immunoprecipitation of endogenous ADAR1 in 293F cells", "type": "cell-based, human", "details": "anti-ADAR1 western blot", "description": "For expressing FLAG-MBD3 and its mutants in 293F cells (Freestyle™ 293 Expression System; Invitrogen), the DNA fragments were PCR amplified and inserted into HindIII site of pFLAG-CMV-2 vector (Sigma-Aldrich). The plasmids were purified by EasyPrep EndoFree Maxi Plasmid Extraction Kit (BIOTOOLS Co., Ltd, Taiwan) and transiently transfected into 293F cells using 293fectin (Invitrogen) according to the manufacturer's guidelines.\nAfter 48 h posttransfection, the cells were washed with cold PBS and lysed with lysis buffer [50 mM Tris–HCl pH 7.5, 0.3% NP-40, 100 mM potassium acetate, 10% glycerol, 50 U/ml Benzonaes (Novagen) and EDTA-free protease inhibitor cocktail tablet (Roche)]. The lysates were incubated with anti-FLAG M2 Affinity Gel (A2220; Sigma-Aldrich) on a rotation at 4°C overnight. […] The immunoprecipitates were eluted by FLAG peptide (F4799; Sigma-Aldrich) and resolved by a NuPAGE 12% Bis–Tris gel (Invotrogen). Specific antibodies used for western blotting were Rabbit anti-FLAG (1:5000; F7425; Sigma-Aldrich) and rabbit anti-ADAR1 D7E2M (1:1000; 14175; Cell Signaling Technology)."}, "[6]": {"biological_target": "the molecule itself", "experiment": "SEC; purified MBDDE or MBD alone on Superdex 75 10/300 GL against protein standards"}, "[7]": {"experiment": "Stability of E. coli-expressed protein", "type": "physicochemical", "details": "recombinant E. coli-expressed protein"}}, "note": "Where “and” joins values, the source holds several entries; their conditions need not be identical. Identical values can stand only once."}
{"molecule": "poly-L-glutamic acid (1500–5500 Da; Sigma) peptide", "values": [{"measurement": "IC50", "setting": "[1]", "result": "1 to 3.7", "unit": "µM"}]}
{"molecule": "Zα, tag-free (Z-DNA binding domain of human ADAR1, residues 133-209) (from UniProt P55265 133-209) (domain or fragment)", "values": [{"measurement": "stoichiometry N", "setting": "[2]", "result": "1 Zα per MBDDE and 2 Zα per MBDDE"}]}
{"molecule": "poly-L-glutamic acid [polyE]", "values": [{"measurement": "competition with d(CG)6 for binding to Zα (in words)", "setting": "[3]; 6-FAM-d(CG)6", "result": "could compete with Zα binding to d(CG)6, although the efficiency was lower than full-length D/E-rich peptide"}, {"measurement": "concentration at 50% displacement (IC50)", "setting": "[3]; pre-incubated Zα and 6-FAM-d(CG)6, triplicate, 95% CI 3.4–8.9 μg/ml", "result": 5.5, "unit": "mg/L"}]}
{"molecule": "DKACAEDDDEEDEEEEEEEPDPDP (modifications not checked)", "note": "[D/E-rich peptide of MBD3, unlabelled (full-length D/E-rich peptide)]", "values": [{"measurement": "IC50", "setting": "[4]", "result": 0.164, "unit": "µM"}]}
{"molecule": "B1", "values": [{"measurement": "DNA conformation after binding", "setting": "d(CG)6 duplex; CD 235-305 nm, 24°C, 7.5 μM DNA duplex, 5 mM HEPES–NaOH pH 7.5, 25 mM NaCl, 1 mM DTT", "result": "kept the duplex DNA in B-form"}, {"measurement": "competition for binding to d(CG)6 (MBD domain added to pre-incubated Zα and d(CG)6)", "setting": "d(CG)6 duplex; CD, increasing MBD domain", "result": "could not compete with the binding of Zα and Z-DNA"}, {"measurement": "complex formation with Zα on SEC", "setting": "Zα; Zα : MBD 4:1 molar ratio, Superdex 75 10/300 GL", "result": "no complex formation was detected"}]}
{"molecule": "B2", "values": [{"measurement": "stoichiometry N", "setting": "[5]", "result": 2}]}
{"molecule": "B3", "values": [{"measurement": "co-immunoprecipitation of ADAR1-p110 (lacking Zα)", "setting": "endogenous ADAR1; 293F cells, FLAG-IP", "result": "also pulled down"}, {"measurement": "co-immunoprecipitation of endogenous ADAR1", "setting": "endogenous ADAR1; transient expression in 293F cells, anti-FLAG resin", "result": "endogenous ADAR1 was indeed pulled down"}]}
{"molecule": "B4", "values": [{"measurement": "stoichiometry N", "setting": "[6]", "result": 2}]}
{"molecule": "B5", "values": [{"measurement": "protein stability (in words)", "setting": "[7]", "result": "more sensitive to protease than the MBD domain"}, {"measurement": "efficiency of interaction with Zα relative to D/E peptide", "setting": "Zα; SEC, Zα and MBDDE", "result": "less efficiently than with D/E peptide"}, {"measurement": "complex formation with Zα on SEC", "setting": "Zα; Zα 100 μM : protein 25 μM (4:1), ice 1 h, 20 mM Tris–HCl pH 7.5, 50 mM NaCl, 1 mM TCEP", "result": "could not detect stable complex formation of Zα and MBDDE"}, {"measurement": "complex formation with Zα on SEC", "setting": "Zα; Zα 400 μM : MBDDE 100 μM (4:1), ice 1 h, Superdex 75, pH 7.5", "result": "a small amount of MBDDE and Zα complex was detected"}]}
